{"source": "paper PMC9204741", "about": "(2022)", "molecules": {"B1": {"name": "GST-SwrA (natural protein)", "chain": "MKRASIVREKKYYELVEQLKDRTQDVTFSATKALSLLMLFSRYLVNYTNVESVNDINEECAKHYFNYLMKNHKRLGINLTDIKRSMHLISGLLDVDVNHYLKDFSLSNVTLWMTQER"}, "B2": {"name": "GST-SwrA^Δ101–117 (domain or fragment)", "chain": "MKRASIVREKKYYELVEQLKDRTQDVTFSATKALSLLMLFSRYLVNYTNVESVNDINEECAKHYFNYLMKNHKRLGINLTDIKRSMHLISGLLDVDVNHY"}}, "key": {"LonA-His6 (B. subtilis)": {"target": "LonA-His6 (B. subtilis) (UniProt P37945)", "sequence (P37945 whole entry)": "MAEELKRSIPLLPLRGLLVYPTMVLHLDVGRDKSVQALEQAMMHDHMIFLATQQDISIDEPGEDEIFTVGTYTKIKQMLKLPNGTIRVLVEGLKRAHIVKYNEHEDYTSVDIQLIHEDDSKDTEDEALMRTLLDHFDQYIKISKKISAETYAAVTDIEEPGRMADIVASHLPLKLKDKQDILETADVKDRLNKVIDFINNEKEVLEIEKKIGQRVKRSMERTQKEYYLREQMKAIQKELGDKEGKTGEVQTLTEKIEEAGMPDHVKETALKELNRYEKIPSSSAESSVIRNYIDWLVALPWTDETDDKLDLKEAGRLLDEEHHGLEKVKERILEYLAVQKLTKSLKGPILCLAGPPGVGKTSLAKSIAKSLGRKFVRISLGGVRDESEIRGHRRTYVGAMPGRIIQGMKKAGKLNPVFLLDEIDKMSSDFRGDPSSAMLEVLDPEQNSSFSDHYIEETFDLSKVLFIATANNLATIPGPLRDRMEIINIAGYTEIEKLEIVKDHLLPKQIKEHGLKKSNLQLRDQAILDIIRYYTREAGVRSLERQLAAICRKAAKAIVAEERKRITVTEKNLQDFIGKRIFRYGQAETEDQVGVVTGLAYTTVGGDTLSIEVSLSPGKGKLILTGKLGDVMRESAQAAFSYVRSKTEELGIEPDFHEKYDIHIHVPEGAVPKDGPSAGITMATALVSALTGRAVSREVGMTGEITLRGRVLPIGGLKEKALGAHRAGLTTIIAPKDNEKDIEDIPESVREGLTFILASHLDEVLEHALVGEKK"}, "His6-SmiA [1]": {"target": "T1, His6-SmiA (B. subtilis)", "T1 chain": "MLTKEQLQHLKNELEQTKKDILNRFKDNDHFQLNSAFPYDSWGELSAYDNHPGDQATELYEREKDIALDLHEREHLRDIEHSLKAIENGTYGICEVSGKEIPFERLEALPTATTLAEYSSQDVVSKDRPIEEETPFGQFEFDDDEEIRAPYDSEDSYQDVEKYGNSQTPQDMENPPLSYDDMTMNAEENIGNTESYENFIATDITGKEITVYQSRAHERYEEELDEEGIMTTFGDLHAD", "experiment": "BLI"}, "His6-SmiA [2]": {"target": "T1, His6-SmiA", "experiment": "BLI; His6-SmiA (300 nM) loaded on anti-penta-His (HIS1K) biosensors; GST-SwrA variants 50-400 nM as analyte; 1x PBS, 1x kinetics buffer, 2% dialyzed fetal bovine serum, 0.5 mM TCEP; 1:1 binding model; Octet RED96"}}}
{"molecule": "GST-mNG-SwrA (from UniProt O32266 1-117) (natural protein)", "values": [{"measurement": "Km of in vitro proteolysis of GST-mNG-SwrA (loss of fluorescence) with 0.25 μM LonA and 0.5 μM SmiA", "setting": "LonA-His6 (B. subtilis)", "result": 1.14, "unit": "µM"}]}
{"molecule": "B1", "values": [{"measurement": "Kd", "setting": "His6-SmiA [1]", "result": 60.9, "unit": "nM"}, {"measurement": "koff", "setting": "His6-SmiA [2]", "result": 0.0093, "unit": "s⁻¹"}, {"measurement": "kon", "setting": "His6-SmiA [2]", "result": 153000, "unit": "M⁻¹ s⁻¹"}]}
{"molecule": "B2", "values": [{"measurement": "Kd", "setting": "His6-SmiA [1]", "result": 43.2, "unit": "nM"}, {"measurement": "Kd", "setting": "His6-SmiA [2]", "result": 43.2, "unit": "nM"}, {"measurement": "koff", "setting": "His6-SmiA [2]", "result": 0.00418, "unit": "s⁻¹"}, {"measurement": "kon", "setting": "His6-SmiA [2]", "result": 96800, "unit": "M⁻¹ s⁻¹"}]}
